From patent publication US20250161505A1 (RIPTIDE BIOSCIENCE, published 2025)

B1: CD206 mouse protein (receptor)
chain: LDARQFLIYNEDHKRCVDALSAISVQTATCNPEAESQKFRWVSDSQIMSVAFKLCLGVPSKTDWASVTLYACDSKSEYQKWECKNDTLFGIKGTELYFNYGNRQEKNIKLYKGSGLWSRWKVYGTTDDLCSRGYEAMYSLLGNANGAVCAFPFKFENKWYADCTSAGRSDGWLWCGTTTDYDKDKLFGFCPLHFEGSERLWNKDPLTGILYQINSKSALTWHQARASCKQQNADLLSVTEIHEQMYLTGLTSSLSSGLWIGLNSLSVRSGWQWAGGSPFRYLNWLPGSPSSEPGKSCVSLNPGKNAKWENLECVQKLGYICKKGNNTLNPFIIPSASDVPTGCPNQWWPYAGHCYRIHREEKKIQKYALQACRKEGGDLASIHSIEEFDFIFSQLGYEPNDELWIGLNDIKIQMYFEWSDGTPVTFTKWLPGEPSHENNRQEDCVVMKGKDGYWADRACEQPLGYICKMVSQSHAVVPEGADKGCRKGWKRHGFYCYLIGSTLSTFTDANHTCTNEKAYLTTVEDRYEQAFLTSLVGLRPEKYFWTGLSDVQNKGTFRWTVDEQVQFTHWNADMPGRKAGCVAMKTGVAGGLWDVLSCEEKAKFVCKHWAEGVTRPPEPTTTPEPKCPENWGTTSKTSMCFKLYAKGKHEKKTWFESRDFCKAIGGELASIKSKDEQQVIWRLITSSGSYHELFWLGLTYGSPSEGFTWSDGSPVSYENWAYGEPNNYQNVEYCGELKGDPGMSWNDINCEHLNNWICQIQKGKTLLPEPTPAPQDNPPVTADGWVIYKDYQYYFSKEKETMDNARAFCKKNFGDLATIKSESEKKFLWKYINKNGGQSPYFIGMLISMDKKFIWMDGSKVDFVAWATGEPNFANDDENCVTMYTNSGFWNDINCGYPNNFICQRHNSSINATAMPTTPTTPGGCKEGWHLYKNKCFKIFGFANEEKKSWQDARQACKGLKGNLVSIENAQEQAFVTYHMRDSTFNAWTGLNDINAEHMFLWTAGQGVHYTNWGKGYPGGRRSSLSYEDADCVVVIGGNSREAGTWMDDTCDSKQGYICQTQTDPSLPVSPTTTPKDGFVTYGKSSYSLMKLKLPWHEAETYCKDHTSLLASILDPYSNAFAWMKMHPFNVPIWIALNSNLTNNEYTWTDRWRVRYTNWGADEPKLKSACVYMDVDGYWRTSYCNESFYFLCKKSDEIPATEPPQLPGKCPESEQTAWIPFYGHCYYFESSFTRSWGQASLECLRMGASLVSIETAAESSFLSYRVEPLKSKTNFWIGMFRNVEGKWLWLNDNPVSFVNWKTGDPSGERNDCVVLASSSGLWNNIHCSSYKGFICKMPKIIDPVTTHSSITTKADQRKMDPQPKGSSKA
notes: Bought protein coated on a 96 well plate (1 ug per well); also called mouse CD206 protein; murine CD206
B2: Recombinant human CD206 (receptor)
chain: LLDTRQFLIYNEDHKRCVDAVSPSAVQTAACNQDAESQKFRWVSESQIMSVAFKLCLGVPSKTDWVAITLYACDSKSEFQKWECKNDTLLGIKGEDLFFNYGNRQEKNIMLYKGSGLWSRWKIYGTTDNLCSRGYEAMYTLLGNANGATCAFPFKFENKWYADCTSAGRSDGWLWCGTTTDYDTDKLFGYCPLKFEGSESLWNKDPLTSVSYQINSKSALTWHQARKSCQQQNAELLSITEIHEQTYLTGLTSSLTSGLWIGLNSLSFNSGWQWSDRSPFRYLNWLPGSPSAEPGKSCVSLNPGKNAKWENLECVQKLGYICKKGNTTLNSFVIPSESDVPTHCPSQWWPYAGHCYKIHRDEKKIQRDALTTCRKEGGDLTSIHTIEELDFIISQLGYEPNDELWIGLNDIKIQMYFEWSDGTPVTFTKWLRGEPSHENNRQEDCVVMKGKDGYWADRGCEWPLGYICKMKSRSQGPEIVEVEKGCRKGWKKHHFYCYMIGHTLSTFAEANQTCNNENAYLTTIEDRYEQAFLTSFVGLRPEKYFWTGLSDIQTKGTFQWTIEEEVRFTHWNSDMPGRKPGCVAMRTGIAGGLWDVLKCDEKAKFVCKHWAEGVTHPPKPTTTPEPKCPEDWGASSRTSLCFKLYAKGKHEKKTWFESRDFCRALGGDLASINNKEEQQTIWRLITASGSYHKLFWLGLTYGSPSEGFTWSDGSPVSYENWAYGEPNNYQNVEYCGELKGDPTMSWNDINCEHLNNWICQIQKGQTPKPEPTPAPQDNPPVTEDGWVIYKDYQYYFSKEKETMDNARAFCKRNFGDLVSIQSESEKKFLWKYVNRNDAQSAYFIGLLISLDKKFAWMDGSKVDYVSWATGEPNFANEDENCVTMYSNSGFWNDINCGYPNAFICQRHNSSINATTVMPTMPSVPSGCKEGWNFYSNKCFKIFGFMEEERKNWQEARKACIGFGGNLVSIQNEKEQAFLTYHMKDSTFSAWTGLNDVNSEHTFLWTDGRGVHYTNWGKGYPGGRRSSLSYEDADCVVIIGGASNEAGKWMDDTCDSKRGYICQTRSDPSLTNPPATIQTDGFVKYGKSSYSLMRQKFQWHEAETYCKLHNSLIASILDPYSNAFAWLQMETSNERVWIALNSNLTDNQYTWTDKWRVRYTNWAADEPKLKSACVYLDLDGYWKTAHCNESFYFLCKRSDEIPATEPPQLPGRCPESDHTAWIPFHGHCYYIESSYTRNWGQASLECLRMGSSLVSIESAAESSFLSYRVEPLKSKTNFWIGLFRNVEGTWLWINNSPVSFVNWNTGDPSGERNDCVALHASSGFWSNIHCSSYKGYICKRPKIIDAKPTHELLTTKADTRKMDPSK
notes: Bought protein, amine-coupled to a CM5 chip (about 5000 RU)

Assays:
[68Ga]MART-1 = target: T1, [68Ga]MART-1 (conjugated with the chelator DOTA complexed with 68Ga; attachment site not stated); test: protein plate binding assay on coated mouse CD206, gamma counting
T1 construct: Synthetic control peptide with DOTA, radiolabeled with 68Ga under the same conditions as RP832c; also called 68Ga-labeled DOTA-MART-1; control tracer

DOTA-MART-1 = target: T2, DOTA-MART-1 (conjugated with the chelator DOTA (no radiometal stated); attachment site not stated); test: SPR (Biacore T200), CD206 immobilized on CM5 chip, peptide as analyte
T2 construct: also called MART-1 peptide with DOTA

| Binder | binding result ([68Ga]MART-1) | binding result (DOTA-MART-1) |
| --- | --- | --- |
| B1 | no binding (tested: 50 nM) | – |
| B2 | – | no binding (tested: 0.5 uM-10 uM) |
